Measured values taken from patent US20110265202A1.

What was measured:
[1] = target: PrpS1-GFP fusion protein expressed in Arabidopsis thaliana pollen (line BG16) (Papaver rhoeas); test: cell-based or functional assay
[2] = target: PrpS8 (Papaver rhoeas pollen S8 protein) on P. rhoeas pollen (Papaver rhoeas); test: cell-based or functional assay

| pollen germination of BG16 Arabidopsis pollen, in vitro SI assay [1] [% reduction] | % germination of P. rhoeas S1S8 pollen with both PrsS1 and PrsS8 added (29.7% with S1 alone) [2] [%] | Substance | pollen viability (Evans blue) at t=2 h, BG16+PrsS1 against WT+S1 pollen [1] [times lower] | pollen viability (Evans blue) at t=4 h, BG16+PrsS1 against WT+S1 pollen [1] [times lower] | pollen viability (Evans blue) at t>8 h, BG16+PrsS1 against WT+S1 pollen [1] [times lower] |
| --- | --- | --- | --- | --- | --- |
| 50 | – | recombinant Papaver rhoeas pistil S1 protein (PrsS1) (ligand) | 35 | 53 | 45 |
| – | 1 | recombinant Papaver rhoeas pistil S8 protein (PrsS8) (ligand) | – | – | – |
